Results: patent publication US20170081378A1 (INDIANA UNIVERSITY RESEARCH AND TECHNOLOGY, published 2017)
Where no end group is shown, it is not given here.

T1: fLL-37 (LL-37 with 5' carboxyfluorescein coupled to the N-terminus) (human, 5' carboxyfluorescein coupled to the N-terminus)
T1 construct: Custom synthesized labelled peptide (AnaSpec), used at 0.1 uM in the fluorescence polarization assay; also called fluorescein-labeled LL-37
T1 peptide: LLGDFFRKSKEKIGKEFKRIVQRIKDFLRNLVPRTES


Experiments:
fLL-37 (LL-37 with 5' …) [1] = target: T1, fLL-37 (LL-37 with 5' …); assay: fluorescence polarization, fLL-37 0.1 uM, peptide titrated 1-1000 nM, phosphate buffer pH 7.0
fLL-37 (LL-37 with 5' …) [2] = target: T1, fLL-37 (LL-37 with 5' …); assay: FRET between fLL-37 and rLL-37 (1:1) in endosomes of BEAS-2B cells, confocal microscopy
Description: FIG. 3. Oligomerization of LL-37 depends upon pH. A) LL-37 forms particles that are micrometers in hydrodynamic radii at neutral pH and the particles dissociate when the pH is decreased. All assays were performed with LL-37 at a concentration of 1 ᵢlM in phosphate buffer. […] C) LL-37 particles will dissociate in the presence of salt. The hydrodynamic radius of ˜1 μM LL-37 was determined in a pH 7.4 phosphate buffer adjusted to contain the concentration of NaCl indicated. D) fLL37 and rLL-37 colocalize in endosomes of BEAS-2B cells. fLL-37, rLL-37, and poly(I:C) were added to BEAS-2B cells that were either mock-treated or treated with ammonium chloride and imaged 60 min later by excitation at 488 nm or at 561 nm. The micrograph images were then merged to show the co-localization of the two fluorescent peptides. E) Co-localization of fLL-37 and rLL-37 in BEAS-2B cells was quantified in the absence or presence of endosomal acidification inhibitors. To detect both peptides, the cells were excited with 488 and 561 nm laser. To determine FRET between the two peptides, the cells were excited at only 488 nm laser, which activates fluorescence of fLL-37 and the emissions for both fluorescein and rhodamine were determined. The data shown were quantified from 20 independent cells from three independently prepared samples. The p values were calculated by using the Student t-test. […]

fLL-37 (LL-37 with 5' …) [3] = target: T1, fLL-37 (LL-37 with 5' …); assay: fluorescence polarization (FIG. 11)
[4] = target: fLL-37 (LL-37 with 5' carboxyfluorescein coupled to the N-terminus) (human); assay: fluorescence polarization, fLL-37 0.1 uM, peptide titrated 1-1000 nM, phosphate buffer pH 7.0

fold change in the fluorescence anisotropy values of f-LL-37 between 1.0 nM and 1000 nM of added peptide (fLL-37 (LL-37 with 5' …) [1]) | Binder | further results
2.6 fold | GLLRKGGEKIGEKLKKIGQKIKNFFQKLVPQPEQ (also called mouse peptide) [mCRAMP (murine ortholog of LL-37)] | 
5 fold | LLGDFFRKSKEKIGKEFKRIVQRIKDFLRKLVPQPEQ (LL-37 with the C-terminal four residues replaced with those from mCRAMP) [Peptide A] | 

More lines, now with the values behind:

Binder | fold change in the fluorescence anisotropy values of f-LL-37 between 1.0 nM and 1000 nM of added peptide (fLL-37 (LL-37 with 5' …) [1]) | further results
LLGDFFRKSKEKIGKEFKRIVQRIKDFLR (N-terminal 29 residues of LL-37 (lacks the C-terminal 8 residues)) [LL-29] | 6.2 fold | 
LLGDFFRKSKEKIGKEFKRIVQRIKDFLRNLVPRTES (also: rhodamine label, position not given here) [rhodamine-labeled LL-37 (rLL-37)] |  | binding result (fLL-37 (LL-37 with 5' …) [2]): binds
LLGDFFRKSKEKIGKEFKRIVQRIKDFLRNLVPRTES (Unlabelled synthetic 37-residue peptide; also called WT LL-37; native LL-37) [LL-37] | 6 fold | 
SKEKIGKEFKRIVQRIKDFLRNLVPRTES [LL8-37] |  | binding result (fLL-37 (LL-37 with 5' …) [3]): binds
SKEKIGKEFKRIVQRIKDFLR [LL9-29] |  | fold change in the fluorescence anisotropy values of f-LL-37 between 1.0 nM and 1000 nM of added peptide [4]: 2.6 fold
